Experimental data: patent publication US20190151365A1 (Novartis, published 2019)

Tests used:
human PD-1 [1] = biological target: T1, human PD-1 (human, UniProt Q15116 25-167, limits assumed); assay: cell-based or functional assay
human PD-1 [2] = biological target: T1, human PD-1; assay: Biacore (SPR)
From the text: PDR-001 was characterized in vitro for its affinity and activity on human PD-1. PDR-001 was expressed in a CHO cell line. PDR-001 bound with high affinity to human PD-1. […] In lymphocyte stimulation assays using human blood ex vivo, PDR-001 enhanced interleukin-2 (IL-2) production by approximately 2 fold in response to super antigen stimulation with Staphylococcus enterotoxin B (SEB).

cynomolgus monkey PD-1 = biological target: T2, cynomolgus monkey PD-1 (cynomolgus monkey, UniProt B0LAJ3 25-170); assay: method not stated for this value (human value by Biacore)
T2 construct: also called cynomolgus PD-1
T2 sequence (B0LAJ3 entry or part of it limits assumed, form in doubt): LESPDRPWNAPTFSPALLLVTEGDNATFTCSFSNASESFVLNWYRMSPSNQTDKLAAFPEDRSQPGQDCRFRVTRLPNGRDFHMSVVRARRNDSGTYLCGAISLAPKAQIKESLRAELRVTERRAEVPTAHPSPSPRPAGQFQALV

T1 sequence (Q15116 25-167 limits assumed): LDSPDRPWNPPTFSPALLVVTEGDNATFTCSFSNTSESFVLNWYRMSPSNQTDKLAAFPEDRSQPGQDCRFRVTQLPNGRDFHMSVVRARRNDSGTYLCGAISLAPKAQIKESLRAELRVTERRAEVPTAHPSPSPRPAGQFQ

B1: PDR-001 (antibody, IgG4, V domains shown)
VH: EVQLVQSGAEVKKPGESLRISCKGSGYTFTTYWMHWVRQATGQGLEWMGNIYPGTGGSNFDEKFKNRVTITADKSTSTAYMELSSLRSEDTAVYYCTRWTTGTGAYWGQGTTVTVSS
VL: EIVLTQSPATLSLSPGERATLSCKSSQSLLDSGNQKNFLTWYQQKPGQAPRLLIYWASTRESGVPSRFSGSGSGTDFTFTISSLEAEDAATYYCQNDYSYPYTFGQGTKVEIK
notes: also called BAP049-Clone-E (variable regions)
Human PD-1 [1]
  interleukin-2 (IL-2) production in lymphocyte stimulation assays using human blood ex vivo, super antigen stimulation with Staphylococcus enterotoxin B (SEB): ~2 fold
Human PD-1 [2]
  Kd: 0.83 nM
Cynomolgus monkey PD-1
  Kd: 0.93 nM
